Measurements taken from article PMC5584245 (Oncotarget, 2017).

T1: membrane CD24 on hepatoma cells (Huh-7, BEL-7402) (Homo sapiens, UniProt P25063)
T1 construct: cluster of differentiation 24 (CD24), GPI-linked membrane protein, endogenous on human hepatoma cell lines; also called CD24 receptors; CD24 ligand; source: endogenous, on Huh-7 and BEL-7402 cells
T1 chain: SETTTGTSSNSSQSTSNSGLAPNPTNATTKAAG

T2: CD24-GST (Homo sapiens, UniProt P25063)
T2 construct: cluster of differentiation 24 (CD24) fused to GST; also called GST-CD24
T2 chain: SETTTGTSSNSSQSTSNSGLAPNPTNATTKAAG


Assays:
[1] = target: T1, membrane CD24 on hepatoma cells (Huh-7, …); experiment: flow cytometry on cells; antibody on Huh-7 and BEL-7402 hepatoma cells, also after RNA interference against CD24; procedure as in ref. 12; settings: one partner purified
CD24-GST = target: T2, CD24-GST; experiment: SPR; Biacore X100; CD24-GST flowed over immobilized antibody; 1:1 binding model; procedure as in ref. 45; settings: both partners purified

| binding rate to BEL-7402 cells [1] [%] | binding rate to Huh-7 cells [1] [%] | Kd (CD24-GST) [nM] | koff (CD24-GST) [s⁻¹] | kon (CD24-GST) [M⁻¹ s⁻¹] | Binder |
| --- | --- | --- | --- | --- | --- |
| 79.3 | 88.4 | 0.191 | 0.000336 | 1.76e+06 | chimeric antibody cG7 (antibody, V domains shown, murine VH of G7mAb (G7mAb-VH); human heavy-chain constant region of the chimeric antibody; murine VL of G7mAb (G7mAb-VL); human light-chain constant region of the chimeric antibody; Chimeric: murine G7mAb variable domains on human constant regions; The vectors of the laboratory hold IgG1 H and L chains and the constant region of the humanized antibodies is from Cetuximab; also called parental …) VH: QVKLEESGGGLVQPGGSLKISCAASGFDFSRYWMSWVRQAPGKGLEWIGEINPDSSTINYTPSLRDKFIISRDNAKNTLYLQMSKVRYEDTSLYYCARQGDYWGQGTSVTVSS VL: not shown |
|  |  | 0.57 |  |  | hG7-BM3 (hVH-B2, hVL-B1) (antibody, V domains shown) VH: QVQLVESGGGVVQPGRSLRLSCAASGFTFSRYWMSWVRQAPGKGLEWIAEINPDSSTINYTPSLRDKFTISRDNSKNTLYLQMSSLRAEDTAVYYCARQGDYWGQGTLVTVSS VL: DIVMTQTPLSLSVTPGQPASISCKSSQSLLHSDGKTYLNWYLQKPGQSPQRLIYLVSKLDSGVPDRFSGSGSGTDFTLKISRVEAEDVGVYYCWQGAHFPYTFGQGTKLEIK |
